{
  "source": "patent US20230263906A1",
  "about": "“HIGH AFFINITY IL-2 RECEPTOR AGONISTS AND SYNTHETIC NANOCARRIER DOSE SPARING” (Selecta Biosciences, Inc., priority 2022, published 2023)",
  "tested_on": "Ovalbumin-specific OTII T cells",
  "test": "Example 5: adoptive transfer of ovalbumin-specific OTII T cells, Foxp3 expression",
  "assay_type": "in vivo, mice",
  "details": "OTII T cells adoptively transferred prior to treatment",
  "experimental": "However, expansion of antigen-specific Treg can be more desirable than expansion of total Treg. The ability of ImmTOR plus antigen combined with IL-2 mutein to induce and/or expand antigen-specific Treg was evaluated. Ovalbumin-specific OTII T cells were adoptively transferred into mice prior to treatment with ovalbumin and ImmTOR and/or IL-2 mutein.",
  "data": [
    {"molecule": "ovalbumin (protein, UniProt P01012 2-386, looked up, model antigen) Ovalbumin: GSIGAASMEFCFDVFKELKVHHANENIFYCPIAIMSALAMVYLGAKDSTRTQINKVVRFDKLPGFGDSIEAQCGTSVNVHSSLRDILNQITKPNDVYSFSLASRLYAEERYPILPEYLQCVKELYRGGLEPINFQTAADQARELINSWVESQTNGIIRNVLQPSSVDSQTAMVLVNAIVFKGLWEKAFKDEDTQAMPFRVTEQESKPVQMMYQIGLFRVASMASEKMKILELPFASGTMSMLVLLPDEVSGLEQLESIINFEKLTEWTSSNVMEERKIKVYLPRMKMEEKYNLTSVLMAMGITDVFSSSANLSGISSAESLKISQAVHAAHAEINEAGREVVGSAEAGVDAASVSEEFRADHPFLFCIKHIATNAVLFFGRCVSP", "values": [
      {"measurement": "percentage of Foxp3+OTII cells", "value": "~6", "unit": "%"}
    ]}
  ]
}
